Source: patent EP4039268A1 (IMBA-Institut für Molekulare Biotechnologie GmbH, dated 2022)

How the values were obtained:
[1] = molecular target: T1, full-length trimeric SARS-CoV-2 Spike protein (Spike-H6) (SARS-CoV-2, N-glycosylated (22 N-glycosylation sites)); assay: ELISA screen
T1 construct: also called trimeric Spike; full-length Spike-H6

[2] = molecular target: T2, human recombinant soluble ACE2 (human, UniProt Q9BYF1 18-740); assay: ELISA screen
T2 construct: also called hrsACE2

[3] = molecular target: T3, monomeric SARS-CoV-2 receptor binding domain (RBD-H6) (SARS-CoV-2, UniProt P0DTC2 319-541); assay: ELISA screen
T3 construct: Made in HEK293-6E cells; also called RBD Spike; monomeric RBD

[4] = molecular target: T2, human recombinant soluble ACE2; assay: ELISA

Binder | Mean normalized OD [1] [OD] | Mean normalized OD [2] [OD] | Mean normalized OD [3] [OD] | binding result [4]
Chodl CRD-mouse IgG2a-Fc fusion protein (Fc fusion) VKHPCYKMAYFHELSSRVSFQEARLACESEGGVLLSLENEAEQKLIESMLQNLTKPGTGISDGDFWIGLLRSGDGQTSGACPDLYQWSDGSSSQFRNWYTDEPSCGSEKCVVMYHQPTANPGLGGPYLYQWNDDRCNMKHNYICKGGGSGGGSGGGS | 0.002 | -0.001 | 0.001 | –
Klrd1 CRD-mouse IgG2a-Fc fusion protein (Fc fusion) HQCNCYFISKEEKSWKRSRDFCASQNSSLLQPQSRNELSFMNFSQTFFWIGMHYSEKRNAWLWEDGTVPSKDLFPEFSVIRPEHCIVYSPSKSVSAESCENKNRYICKGGGSGGGSGGGS | 0.003 | 0.006 | 0.004 | no binding (tested: 10 µg/ml)
Clec3a CRD-mouse IgG2a-Fc fusion protein (Fc fusion) VHKKCYLASEGLKHYHEANEDCISKGGTLVVPRNSDEINALRDYGKRSLPGVNDFWLGINDMVTEGKFLDVHGFAVSFLNWDRAQPSGGKRENCVLFSQSAQGKWSDEACRSSKRYICEGGGSGGGSGGGS | 0.098 | 0.045 | 0.039 | no binding (tested: 10 µg/ml)
Clec2d CRD-mouse IgG2a-Fc fusion protein (Fc fusion) VENKCFYFSEYPSNWTFAQAFCMAQEAQLARFDNQDELNFLMRYKANFDSWIGLHRESSEHPWKWTDNTEYNNTIPIRGEERFAYLNNNGISSTRIYSLRMWICSKLNSYSLHCQTGGGSGGGSGGGS | -0.106 | -0.506 | 0.024 | –
Lgals4_1 CRD-mouse IgG2a-Fc fusion protein (Fc fusion) YKRPIPGGLSVGMSVYIQGMAKENMRRFHVNFAVGQDDGADVAFHFNPRFDGWDKVVFNTMQSGQWGKEEKKKSMPFQKGKHFELVFMVMPEHYKVVVNGNSFYEYGHRLPVQMVTHLQVDGDLELQSINFLGGGSGGGSGGGS | 0.152 | 0.2 | – | no binding (tested: 10 µg/ml)
Frem1 CRD-mouse IgG2a-Fc fusion protein (Fc fusion) HSGYCHILVTRQKGTWTTATRACREQHQGDLVTVLSRRHMQWLWAMSGRKPFWIGLKNQPRTGHWEWIGGEPVAFTNWRRGAPLHPKPGKNCALVQKRGQWQTKNCSKGKAHNFVGGGSGGGSGGGS | 0.03 | 0.028 | 0.013 | no binding (tested: 10 µg/ml)
Dgcr2 CRD-mouse IgG2a-Fc fusion protein (Fc fusion) CPSGWHHYEGTASCYRVYLSGENYWDAAQTCQRVNGSLATFSTDQELRFVLAQEWDQPERSFGWKDQRKLWVGYQYVITGRNHSLEGRWEVAFKGSPEVFLPPDPIFASAMSENDNVFCAQLQCFHFGGGSGGGSGGGS | 0.005 | 0.012 | 0.003 | no binding (tested: 10 µg/ml)
Clec2l CRD-mouse IgG2a-Fc fusion protein (Fc fusion) YGRKCYYFSEEPRDWNTGRQYCHTHEAALAVIQSQKELEFMFKFTRREPWIGLRRVGDDFHWVNGDPFDPDTFTISGMGECVFVEPTRLVSTECLTTRPWVCSGGGSGGGSGGGS | -0.001 | 0 | 0 | no binding (tested: 10 µg/ml)
Atrn CRD-mouse IgG2a-Fc fusion protein (Fc fusion) VGNSCLKITTAKENYDNAKLSCRNHNAFLASLTSQKKVEFVLKQLRLMQSSQSMSKLTLTPWVGLRKINVSYWCWEDMSPFTNSLLQWMPSEPSDAGFCGILSEPSTRGLKAATCINPLNGSVCEGGGSGGGSGGGS | 0.002 | 0.002 | 0.001 | no binding (tested: 10 µg/ml)
Klri2 CRD-mouse IgG2a-Fc fusion protein (Fc fusion) FGNNFYCVFRENSKTWVESQSACEELNSHLVIIDSKAEVENLLLFEMDGWILHRMDGTNSSRLWGNDIKIRNTLMNDSEKKNHSCHYLRGNIFMPDECSAKKTYICEGGGSGGGSGGGS | 0.006 | 0.005 | 0.001 | no binding (tested: 10 µg/ml)
Colec11 CRD-mouse IgG2a-Fc fusion protein (Fc fusion) TESKIYLLVKEEKRYADAQLSCQARGGTLSMPKDEAANGLMASYLAQAGLARVFIGINDLEKEGAFVYSDRSPMQTFNKWRSGEPNNAYDEEDCVEMVASGGWNDVACHITMYFMCEGGGSGGGSGGGS | 0.043 | 0.153 | 0.013 | no binding (tested: 10 µg/ml)
Clec1a CRD-mouse IgG2a-Fc fusion protein (Fc fusion) YGDKCYQFYKESKNWQSCEYFCLADNATMLKISTQEELDFAMPQSYSEFFYSYWTGLSRNGSGKAWLWTDGTPYSFELFEIIIDPTNLRNRDCMTIFNGKAYSKDCKELRRCACEGGGSGGGSGGGS | -0.005 | -0.006 | 0.01 | –
Olr1 CRD-mouse IgG2a-Fc fusion protein (Fc fusion) HKENCYLFHGPFSWEKNRQTCQSLGGQLLQINGADDLTFILQAISHTTSPFWIGLHRKKPGQPWLWENGTPLNFQFFKTRGVSLQLYSSGNCAYLQDGAVFAENCILIAFSICQGGGSGGGSGGGS | 0.083 | 0.116 | – | no binding (tested: 10 µg/ml)
Cd207 CRD-mouse IgG2a-Fc fusion protein (Fc fusion) FSGNFYYFSRTPKTWYSAEQFCISRKAHLTSVSSESEQKFLYKAADGIPHWIGLTKAGSEGDWYWVDQTSFNKEQSRRFWIPGEPNNAGNNEHCANIRVSALKCWNDGPCDNTFLFICKGGGSGGGSGGGS | 0.028 | 0.123 | 0.118 | no binding (tested: 10 µg/ml)
Grifin CRD-mouse IgG2a-Fc fusion protein (Fc fusion) FEAFCAGGLAPGWSLTVQGHADAGEEKFEINFLTDAGDIAFHVKPRFSSATVVGNAFQGGRWGQEEVSSIFPLTLGEPFEMEVSADAEHFHIYAQEQKVLQFPHRHRPLATITRVRVLSEHRLAQVELAGGGSGGGSGGGS | 0.004 | 0.035 | 0 | no binding (tested: 10 µg/ml)
Asgr1 CRD-mouse IgG2a-Fc fusion protein (Fc fusion) YEGSCYWFSSSVRPWTEADKYCQLENAHLVVVTSRDEQNFLQRHMGPLNTWIGLTDQNGPWKWVDGTDYETGFQNWRPEQPDNWYGHGLGGGEDCAHFTTDGRWNDDVCRRPYRWVCEGGGSGGGSGGGS | 0.121 | 0.004 | – | no binding (tested: 10 µg/ml)
Acan CRD-mouse IgG2a-Fc fusion protein (Fc fusion) not shown | 0.023 | 0.081 | 0.035 | no binding (tested: 10 µg/ml)
Clec3b CRD-mouse IgG2a-Fc fusion protein (Fc fusion) VNLKCLLAFTQPKTFHEASEDCISQGGTLGTPQSELENEALFEYARHSVGNDANIWLGLNDMAAEGAWVDMTGGLLAYKNWETEITTQPDGGKAENCAALSGAANGKWFDKRCRDQLPYICQGGGSGGGSGGGS | 0.001 | 0.001 | 0 | no binding (tested: 10 µg/ml)
Clec18a CRD-mouse IgG2a-Fc fusion protein (Fc fusion) IDGDCFMVSPEADTYYGAKMKCQGKGGVLAQIESQKVQDILAFYLGRLETTNEVTDSDFETKNFWIGLTYKAAKDSFRWTTGEHQSFTSFAFGQPDNQGFGNCVEMQASAAFNWNDQRCKTRNRYICQGGGSGGGSGGGS | 0.022 | -0.013 | 0 | –
Clec4e CRD-mouse IgG2a-Fc fusion protein (Fc fusion) YQSSCYFFSTTTLTWSSSLKNCSDMGAHLVVIDTQEEQEFLFRTKPKRKEFYIGLTDQVVEGQWQWVDDTPFTESLSFWDAGEPNNIVLVEDCATIRDSSNSRKNWNDIPCFYSMPWICEGGGSGGGSGGGS | 0.037 | 0.222 | 0.022 | no binding (tested: 10 µg/ml)
Klrb1 CRD-mouse IgG2a-Fc fusion protein (Fc fusion) HCDKCLFTSQTSRPWADGLVDCNLKGATLLLIQDEEELRLLQNFSKGKGQQFYIGLKYEEVDKVWKWMNGSILNTNLLQITGKDEENSCALISQTEVFSDSCSSDNHWICQGGGSGGGSGGGS | 0.002 | 0.012 | 0.005 | no binding (tested: 10 µg/ml)
Clec9a CRD-mouse IgG2a-Fc fusion protein (Fc fusion) NGKSCYYVFERWEMWNISKKSCLKEGASLFQIDSKEEMEFISSIGKLKGGNKYWVGVFQDGISGSWFWEDGSSPLSDLLPAERQRSAGQICGYLKDSTLISDKCDSWKYFICEGGGSGGGSGGGS | 0.029 | 0.222 | 0.062 | no binding (tested: 10 µg/ml)
Colec10 CRD-mouse IgG2a-Fc fusion protein (Fc fusion) TEEKFYYIVQEEKNYRESLTHCRIRGGMLAMPKDEVVNTLIADYVAKSGFFRVFIGVNDLEREGQYVFTDNTPLQNYSNWKEEEPSDPSGHEDCVEMLSSGRWNDTECHLTMYFVCEGGGSGGGSGGGS | 0.036 | 0.185 | 0.008 | no binding (tested: 10 µg/ml)
Klrb1a CRD-mouse IgG2a-Fc fusion protein (Fc fusion) ECPQDWLSHRDKCFHVSHVSNTWEEGLVDCDGKGATLMLIQDQEELRFLLDSIKEKYNSFWIGLRYTLPDMNWKWINGSTLNSDVLKITDDTENDSCAAISGDKVTFESCNSDNRWICQKGGGSGGGSGGGS | 0 | 0 | 0.002 | no binding (tested: 10 µg/ml)
